Assay results taken from article PMC4297576.

Legend:
[1] = biological target: Cdk2/cyclin A complex (T160-phosphorylated full-length human Cdk2 and truncated human cyclin A2, residues 173-432) (human) (UniProt P24941)
[2] = biological target: Cdk2/cyclin A complex (T160-phosphorylated full-length human Cdk2 and truncated human cyclin A2, residues 173-432) (human) (UniProt P24941); experiment: ITC

peptide corresponding to sub-domain D1C (p21 residues 139-160), sequence (P38936 139-160): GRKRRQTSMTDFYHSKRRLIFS

## p21-KIDC-Y77E (from UniProt P38936 25-164) (domain or fragment)
[1]
  IC50 of inhibition of Cdk2/cyclin A kinase activity, substrate Histone H1: 55.4 nM
  IC50 of inhibition of Cdk2/cyclin A kinase activity, substrate Rb-C: 22.8 nM

## peptide corresponding to sub-domain D1C (p21 residues 139-160) (from UniProt P38936 139-160)
[2]
  Kd: 208 nM

## p21-FL-Y77E (from UniProt P38936 1-164) (natural protein)
[1]
  IC50 of inhibition of Cdk2/cyclin A kinase activity, substrate Histone H1: 23.4 nM
  IC50 of inhibition of Cdk2/cyclin A kinase activity, substrate Rb-C: 19.9 nM

## p21-KIDN-Y77E (from UniProt P38936 9-84) (domain or fragment)
[1]
  IC50 of inhibition of Cdk2/cyclin A kinase activity, substrate Histone H1: 68.1 nM
  IC50 of inhibition of Cdk2/cyclin A kinase activity, substrate Rb-C: 46.6 nM
